From doi:10.1101/2023.01.18.524603

Experiments:
Assay in all cases: EMSA
Settings in all cases: EMSA: 25 mM Tris-HCl pH 7.4, 100 mM NaCl, 5 ng DNA in 10 ul, 20 min, room temperature, AFM: 25 mM HEPES-NaOH pH 7.4, 5 mM MgCl2, 50 mM NaCl, 10% glycerol
[1] = test system: Rec114C (Saccharomyces cerevisiae)
[2] = molecular target: T1, Rec114C-Mei4N (RM-TDB) (Saccharomyces cerevisiae) (UniProt P32841+P29467)
T1 sequence 1: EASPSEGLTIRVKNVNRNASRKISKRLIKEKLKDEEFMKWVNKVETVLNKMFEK
T1 sequence 2: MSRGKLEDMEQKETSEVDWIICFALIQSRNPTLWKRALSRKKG

[3] = test system: Rec114(388-428) K399A/R400A-Mei4N (Saccharomyces cerevisiae)
[4] = test system: Rec114C-Mei4N-ybbR (Saccharomyces cerevisiae)
[5] = test system: Rec114(388-428) K403A/K407A-Mei4N (Saccharomyces cerevisiae)
[6] = test system: Rec114(325-428)-Mei4(1-90) (Saccharomyces cerevisiae)
[7] = test system: Rec114(388-428) K417A/K424A-Mei4N (Saccharomyces cerevisiae)
[8] = test system: Rec114(388-428)-Mei4(13-43) (Saccharomyces cerevisiae)
[9] = test system: Rec114(386-428)-Mei4N (Saccharomyces cerevisiae)
[10] = test system: Rec114(388-428)-Mei4N (Saccharomyces cerevisiae)
[11] = test system: Rec114(388-428) R395A/K396A-Mei4N (Saccharomyces cerevisiae)
[12] = test system: Rec114C-Mei4N-ybbR-LD650 (Saccharomyces cerevisiae)

Row | Substance | K half [1] [nM] | K half [2] [nM] | K half [3] [nM] | K half [4] [nM] | K half [5] [nM] | K half [6] [nM] | K half [7] [nM] | K half [8] [nM] | K half [9] [nM] | K half [10] [nM] | K half [11] [nM] | K half [12] [nM]
1 | 1000-bp linear DNA | 300 | 80 | – | – | – | – | – | – | – | – | – | –
2 | 150-bp linear DNA | – | 90 | 2000 | 90 | 1000 | 90 | 900 | 100 | 110 | 110 | 1000 | 90
